pEC50, pIC50: −log10 of the molar value.
What was measured:
[1] = biological target: human PVRIG (AcroBiosystems, Cat NO. PVG-H52H4) (human) (UniProt Q6DKI7); test: ELISA, coated human PVRIG; negative control
[2] = biological target: cynomolgus monkey PVRIG (Novoprotein, Cat NO. C09B) (cynomolgus monkey); test: ELISA, coated cynomolgus PVRIG; negative control
[3] = biological target: cynomolgus monkey TIGIT ECD-mFc (cynomolgus monkey); test: ELISA, cynomolgus TIGIT ECD-mFc captured by anti-mouse IgG; negative control
Chain of cynomolgus monkey TIGIT ECD-mFc (cynomolgus monkey) (chain, as listed by the source limits assumed): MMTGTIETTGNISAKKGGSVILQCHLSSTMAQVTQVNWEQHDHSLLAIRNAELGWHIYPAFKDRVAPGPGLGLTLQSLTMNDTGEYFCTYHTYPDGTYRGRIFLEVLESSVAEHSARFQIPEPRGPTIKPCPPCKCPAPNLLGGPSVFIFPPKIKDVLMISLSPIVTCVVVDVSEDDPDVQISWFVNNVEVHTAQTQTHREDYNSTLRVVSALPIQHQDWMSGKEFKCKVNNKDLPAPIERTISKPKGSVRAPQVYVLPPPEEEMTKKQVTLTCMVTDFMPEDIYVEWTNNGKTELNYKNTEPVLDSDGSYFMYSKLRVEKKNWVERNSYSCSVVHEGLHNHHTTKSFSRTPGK

[4] = biological target: human PVRIG-mFc protein (Acro, PVG-H5253) (human) (UniProt Q6DKI7); test: HTRF competition, PVRIG-mFc with Bio-CD112-His as competitor; negative control
Chain of human PVRIG-mFc protein (Acro, PVG-H5253) (human) (Q6DKI7 41-171 limits assumed, form in doubt): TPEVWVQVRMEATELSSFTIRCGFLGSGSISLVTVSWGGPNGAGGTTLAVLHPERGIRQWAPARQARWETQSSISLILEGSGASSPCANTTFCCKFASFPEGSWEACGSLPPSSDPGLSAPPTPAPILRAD

Chain of human PVRIG (AcroBiosystems, Cat NO. PVG-H52H4) (human) (Q6DKI7 41-171 limits assumed, form in doubt): as above
Chain of cynomolgus monkey PVRIG (Novoprotein, Cat NO. C09B) (cynomolgus monkey) (chain, as listed by the source): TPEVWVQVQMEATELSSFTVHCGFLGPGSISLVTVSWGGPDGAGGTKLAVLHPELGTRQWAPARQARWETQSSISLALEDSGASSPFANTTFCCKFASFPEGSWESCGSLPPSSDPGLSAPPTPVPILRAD

anti-Fluorescein-hIgG1 (antibody)
pEC50 [1]: 4.39 | pEC50 [2]: 8.40 | pEC50 [3]: 9.16 | pIC50 [4]: 10.52
